One may read the Kd as the constant that tells how readily two partners part at equilibrium. Read a low Kd as tighter binding.

For assay [1], the target named is T1, UFL1 27-200 (the UFL1 piece of the fusion DDRGK1-UFL1ΔN) (UniProt O94874 27-200).
T1 sequence: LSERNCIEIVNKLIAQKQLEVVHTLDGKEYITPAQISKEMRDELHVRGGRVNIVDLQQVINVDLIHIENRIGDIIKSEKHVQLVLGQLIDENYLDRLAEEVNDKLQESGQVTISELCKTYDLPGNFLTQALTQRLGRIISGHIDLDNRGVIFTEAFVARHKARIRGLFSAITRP
Nature of the assay: crystal structure.

In assay [2] the target is T2, UFC1 (UniProt Q9Y3C8 1-167).
T2 sequence: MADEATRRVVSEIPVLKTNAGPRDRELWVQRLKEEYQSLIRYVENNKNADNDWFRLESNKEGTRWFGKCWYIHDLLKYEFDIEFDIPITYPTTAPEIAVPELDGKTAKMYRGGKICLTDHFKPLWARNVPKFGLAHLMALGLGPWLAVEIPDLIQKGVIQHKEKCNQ
The assay is described as follows: NMR titration.

Assay [3] has as its target T2, UFC1. The assay is described as follows: ITC. For orientation: In ITC the heat of successive injections is recorded.

B1: DDRGK1 207-305 (the DDRGK1 piece of the fusion DDRGK1-UFL1ΔN) (domain or fragment)
chain: MTEEQSQSFLTEFINYIKQSKVVLLEDLASQVGLRTQDTINRIQDLLAEGTITGVIDDRGKFIYITPEELAAVANFIRQRGRVSIAELAQASNSLIAWG
For the molecule B1, the binding result in assay [1] is “binds”.

B2: UBA5 C-terminus (UBA5 347-404) (domain or fragment)
chain: SEVSEEELKNFSGPVPDLPEGITVAYTIPKKQEDSVTELTVEDSGESLEDLMAKMKNM
With B2, the binding result with UFC1 [2] is listed as “binds”.

B3: DDRGK1_(207-314)-UFL1_(1-200) fusion protein (other)
chain: MTEEQSQSFLTEFINYIKQSKVVLLEDLASQVGLRTQDTINRIQDLLAEGTITGVIDDRGKFIYITPEELAAVANFIRQRGRVSIAELAQASNSLIAWGRESPAQAPAMADAWEEIRRLAADFQRAQFAEATQRLSERNCIEIVNKLIAQKQLEVVHTLDGKEYITPAQISKEMRDELHVRGGRVNIVDLQQVINVDLIHIENRIGDIIKSEKHVQLVLGQLIDENYLDRLAEEVNDKLQESGQVTISELCKTYDLPGNFLTQALTQRLGRIISGHIDLDNRGVIFTEAFVARHKARIRGLFSAITRP
B3 showed a Kd with UFC1 [3] of 2400 nM.

The values are drawn from article doi:10.1101/2022.09.15.508077 (bioRxiv, 2022).
